According to US8497352B2, “Use of Wnt5-α peptide derivates for the treatment of melanoma and gastric cancer” (Wntresearch AB, priority 2008, dated 2013):

Assays:
A2058 melanoma cells [1] = experiment: Cell adhesion assay, A2058 cells; type: cell-based, human; conditions: recombinant Wnt-5a, 60 min adhesion
Description: Cells pre-treated and stimulated as described below were detached with Versene, re-suspended in serum-free RPMI medium and samples containing 30,000 cells from each treatment group were added to each well of a 96-well plate The cells were allowed to adhere for 60 min at 37° C. in a humidified atmosphere of 5% carbon dioxide after which the non-adherent cells were washed away with PBS. The adherent cells were fixed in 1% glutaraldehyde for 10 min at room temperature and then stained with 0.5% crystal violet in 20% methanol for 10 min. Finally the stain from each group of cells was dissolved in 50% acetic acid. The amount of dissolved stain from each well was thereafter measured in a Fluostar plate reader (BMG Lab Technologies GmbH, Offenberg, Germany) at 544 nm. The individual samples from each separate experiment were analysed in quadruplicate and the accumulated data were based on 5 separate experiments. The results are illustrated in FIG. 4. • A) A2058 melanoma cells were stimulated with the indicated concentrations of Wnt-5a, detached with Versene and resuspended as single cells in serum-free medium in the presence or absence of recombinant Wnt-5a at the indicated concentrations. Cells were then allowed to adhere in a 96-well plate. After a period of 60 min the non-adherent cells were washed away while the adherent cells were stained and their number determined. This number is presented as a percentage of the control (no Wnt-5a) stimulation (FIG. 4A) • B) A2058 melanoma cells were cultured to confluence in a 12-well plate after which a scratch was inflicted in each well, the medium was changed to fresh serum-free medium lacking (closed circles) or containing 0.2 μg/ml Wnt-5a (open squares). (FIG. 4B) • C) A2058 melanoma cells were cultured to confluence in a 12-well plate after which a scratch was inflicted to each well, the medium was changed to fresh serum-free medium in the absence of any additive (closed circle), the presence of 0.2 μg/ml Wnt-5a alone (open squares) or the presence of 0.2 μg/ml Wnt-5a with 100 μM Box5 (open triangle). (FIG. 4C) • D) HTB63 melanoma cells were cultured to confluence in a 12-well dish after which a scratch was inflicted to each well, the medium was changed to fresh serum-free medium (closed circle), conditioned medium (open squares) or conditioned medium supplemented with 100 μM Box5 (open triangle). To record changes in migration in panels B-D, a picture was taken from each scratch/well from the same area of cells after 0, 16, 24, 40 or 48 hours, and the wound-healing was expressed as percentage of wound area closed. […] The cells were then allowed to invade for 24 hours after which the attached cells on the lower side of the membrane were counted. […]

A2058 melanoma cells [2] = experiment: Wound-healing assay (migration), A2058 cells; type: cell-based, human; conditions: 0.2 μg/ml Wnt-5a, serum-free medium
Description: Cells were plated in 12 well plates and allowed to grow into a confluent layer in complete RPMI (for A2058 cells) or complete McCoy's 5A medium (for HTB63 cells). As indicated, cells were pre-incubated with the Box5 peptide (100 μM) or control solvent for 40 min with continuous agitation. A wound was then inflicted by making a scratch through the confluent layer of cells with a pipette tip. During the migration period of the assay, cells were incubated either in serum-free medium or in the case of HTB63 cells in their own serum-free-conditioned medium collected from cells cultured for 48 h and used within 2 days after collection. The exact conditions of each experiment are described above. To avoid loss of activity, cell medium was changed after 24 hours. A picture for each scratch was taken in the same area of cells at 0, 16, 24, 40 and 48 hours, and wound healing was measured as percentage of wound area closed. For each experimental condition wound healing was analysed in triplicate. All data were based on 3 to 8 separate experiments as indicated.

B1: Wnt-5a: human recombinant Wnt-5a protein from R&D Systems (protein, UniProt P41221 62-380, looked up)
Protein Wnt-5a: IIGAQPLCSQLAGLSQGQKKLCHLYQDHMQYIGEGAKTGIKECQYQFRHRRWNCSTVDNTSVFGRVMQIGSRETAFTYAVSAAGVVNAMSRACREGELSTCGCSRAARPKDLPRDWLWGGCGDNIDYGYRFAKEFVDARERERIHAKGSYESARILMNLHNNEAGRRTVYNLADVACKCHGVSGSCSLKTCWLQLADFRKVGDALKEKYDSAAAMRLNSRGKLVQVNSRFNSPTTQDLVYIDPSPDYCVRNESTGSLGTQGRLCNKTSEGMDGCELMCCGRGYDQFKTVQTERCHCKFHWCCYVKCKKCTEIVDQFVCK
**Q.** Which results are given for B1?
**A.** Concentration giving maximal effect on adhesion of A2058 cells (A2058 melanoma cells [1]): 0.2 µg/mL; Effect on adhesive capacity of A2058 cells (A2058 melanoma cells [1]): enhanced; Effect on migration of A2058 cells (A2058 melanoma cells [2]): increased
